In PMC3485190, “Crystal Structures of Lysine-Preferred Racemases, the Non-Antibiotic Selectable Markers for Transgenic Plants” (PLoS ONE, 2012):

What was measured:
NCCCC[C@H](N)C(=O)O = system: T1, NCCCC[C@H](N)C(=O)O; experiment: steady-state racemization, chiral HPLC; format: biochemical, Pseudomonas putida; conditions: 100 mM CHES-NaOH pH 9.0, 30 µM PLP, 50°C
T1 construct: homodimer; first 25 residues (signal peptide) removed by auto-cleavage
Text: steady-state racemization, chiral HPLC on Bar (broad-specificity amino acid racemase)

[1] = biological target: T2, Bar (broad-specificity amino acid racemase) (Pseudomonas putida, UniProt I6LNY0); experiment: X-ray crystallography, […] Å; format: binding; conditions: co-crystallized with 4 mM L-lysine, pH 9.0; covalent external aldimine with PLP
T2 construct: homodimer; first 25 residues (signal peptide) removed by auto-cleavage
T2 sequence (I6LNY0 26-409): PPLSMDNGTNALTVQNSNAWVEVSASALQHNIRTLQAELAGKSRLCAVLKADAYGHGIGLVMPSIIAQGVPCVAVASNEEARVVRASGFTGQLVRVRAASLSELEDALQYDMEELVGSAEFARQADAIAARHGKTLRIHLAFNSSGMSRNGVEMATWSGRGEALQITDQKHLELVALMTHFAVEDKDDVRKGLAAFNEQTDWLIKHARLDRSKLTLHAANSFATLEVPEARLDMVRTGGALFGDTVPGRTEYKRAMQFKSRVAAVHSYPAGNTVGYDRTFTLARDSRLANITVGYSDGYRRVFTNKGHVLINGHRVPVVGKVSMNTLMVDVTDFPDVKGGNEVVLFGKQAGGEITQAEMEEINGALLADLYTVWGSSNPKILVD

[2] = biological target: T2, Bar (broad-specificity amino acid racemase); experiment: X-ray crystallography, […] Å; format: binding; conditions: covalent, internal aldimine with Lys75; pH 8.5
[3] = biological target: the molecule itself; experiment: crystal structure; apo Bar (4.7 mg/ml in 10% glycerol), sitting-drop vapor diffusion at 20°C, 0.1 M Tris-HCl pH 8.5, 2.0 M ammonium sulfate; space group C2, two molecules per asymmetric unit; 2.45 Å
[4] = substrate: N=C(N)NCCC[C@H](N)C(=O)O; experiment: steady-state racemization, chiral HPLC; format: biochemical, Proteus mirabilis; conditions: 100 mM CHES-NaOH pH 9.0, 30 µM PLP, 50°C
Text: (§1) steady-state racemization, chiral HPLC on Lyr (lysine racemase)

[5] = substrate: NCCCC[C@H](N)C(=O)O; experiment: steady-state racemization, chiral HPLC; format: biochemical, Proteus mirabilis; conditions: 100 mM CHES-NaOH pH 9.0, 30 µM PLP, 50°C
Text: as §1

[6] = biological target: the molecule itself; experiment: crystal structure; Lyr (2.5 mg/ml), sitting-drop vapor diffusion at 20°C, 0.1 M sodium acetate pH 4.6, 0.05 M lithium chloride, 29% PEG 8000; space group C222(1), one molecule per asymmetric unit, dimer by a crystallographic two-fold axis; 1.74 Å

Work on “Bar (broad-specificity amino acid racemase) (Pseudomonas putida; A393Y)” yielded a Km (NCCCC[C@H](N)C(=O)O) of 33.9 ± 3.5 mM, a kcat (NCCCC[C@H](N)C(=O)O) of 24.3 ± 2.18 s⁻¹ and a kcat/Km (NCCCC[C@H](N)C(=O)O) of 715 M⁻¹ s⁻¹.

For `NCCCC[C@H](N)C(=O)O` [L-Lys], the “X-ray crystallography, 3.10 Å” value [1] was “The complex-Bar structure was established (Figure 7A, B) by co-crystallizing Bar with L-lysine”.

`Cc1ncc(COP(=O)(O)O)c(C=O)c1O` [PLP] was tested, and the “X-ray crystallography, 2.45 Å” value [2] was “fit with an aldimine bond between the Lys75 Nζ and the PLP C4A”.

B1: Broad-specificity amino acid racemase (Bar) from Pseudomonas putida DSM84 (enzyme, UniProt I6LNY0 26-409, looked up)
chain: T2 sequence (I6LNY0 26-409)
modifications: PLP bound to Lys75 by an internal aldimine bond (apo crystal); in the crystal with L-lysine PLP forms the external aldimine with the substrate
notes: Broad-specificity amino acid racemase (Bar, E.C. 5.1.1.10), Pseudomonas putida DSM84, gene bar amplified from chromosomal DNA into pET21a; the first 25 residues contained the signal peptide and were removed by auto-cleavage; Head-to-tail homodimer in the crystal (two molecules in the asymmetric unit); also called wild-type Bar; complex-Bar (with L-lysine)
In the case of B1, the “stoichiometry N” value [3] is reported as 2.

B2: Lysine racemase (Lyr) from Proteus mirabilis BCRC10725 (enzyme)
chain: CQQPVNYNPPATQVAQVQPAIVNNSWIEISRSALDFNVKKVQSLLGKQSSLCAVLKGDAYGHDLSLVAPIMIENNVKCIGVTNNQELKEVRDLGFKGRLMRVRNATEQEMAQATNYNVEELIGDLDMAKRLDAIAKQQNKVIPIHLALNSGGMSRNGLEVDNKSGLEKAKQISQLANLKVVGIMSHYPEEDANKVREDLARFKQQSQQVLEVMGLERNNVTLHMANTFATITVPESWLDMVRVGGIFYGDTIASTDYKRVMTFKSNIASINYYPKGNTVGYDRTYTLKRDSVLANIPVGYADGYRRVFSNAGHALIAGQRVPVLGKTSMNTVIVDITSLNNIKPGDEVVFFGKQGNSEITAEEIEDISGALFTEMSILWGATNQRVLVD
notes: also called wild-type Lyr
B2 showed a Km [4] of 14.9 ± 1.0 mM, a kcat [4] of 10.8 ± 0.583 s⁻¹ and a kcat/Km [4] of 727 M⁻¹ s⁻¹. It also gave a Km [5] of 21.8 ± 0.5 mM, a kcat [5] of 55.4 ± 1.13 s⁻¹ and a kcat/Km [5] of 2540 M⁻¹ s⁻¹. For the same molecule, the “stoichiometry N” value [6] was 2.
